From patent publication US20250332297A1, “DLL3-SPECIFIC BINDING CONSTRUCTS AND THEIR USE IN RADIOTHERAPY” (MOLECULAR PARTNERS AG, priority 2024, published 2025)
Where a chain is given by its changes, count along the chain named. Like-named read-outs stand apart in the source and are kept apart here.

B1: MAM279: Two domain (2D) ankyrin repeat protein: serum albumin-specific domain (SEQ ID NO: 7), PT linker, DLL3-specific domain of MAM093 (protein)
chain: DLGKKLLEAARAGQDDEVRELLKAGADVNAKDYFSHTPLHLAARNGHLKIVEVLLKAGADVNAKDFAGKTPLHLAADAGHLEIVEVLLKAGADVNAQDIFGKTPADIAADAGHEDIAEVLQKAAGSPTPTPTTPTPTPTTPTPTPTGSDLGKKLLAAAAQGQDDEVRELLKAGANVNAKDLFGYTPLHLAAWRGHLEIVEVLLKAGADVNAKDAAGETPLHLAAWFGHLEIVEVLLKAGADVNAQDLQGKTPADLAAKEGHEDIAEVLQKAA
modifications: Ankyrin repeat protein (MAM279)
B2: MAM283: Two domain (2D) ankyrin repeat protein: serum albumin-specific domain (SEQ ID NO: 7), PT linker, DLL3-specific domain (SEQ ID NO: 3) (protein)
chain: B1 chain with Q160D, K171Q, N175D, K204E, K237E, L247V, K270Q
modifications: Ankyrin repeat protein (MAM283)
B3: MAM282: Two domain (2D) ankyrin repeat protein: serum albumin-specific domain (SEQ ID NO: 7), PT linker, DLL3-specific domain (SEQ ID NO: 2) (protein)
chain: DLGKKLLEAARAGQDDEVRELLKAGADVNAKDYFSHTPLHLAARNGHLKIVEVLLKAGADVNAKDFAGKTPLHLAADAGHLEIVEVLLKAGADVNAQDIFGKTPADIAADAGHEDIAEVLQKAAGSPTPTPTTPTPTPTTPTPTPTGSDLGKKLLAAAREGQDDEVRELLKAGADVNAKDIWGQTPLHIAAWFGHLEIVEVLLKAGADVNAKDQTGHTPLHLAAKFGHLEIVEVLLKAGADVNAQDLLGRTPADLAAEEGHEDIAEVLQKAA
modifications: Ankyrin repeat protein (MAM282)
B4: MAM279-DOTAM: GS-MAM279-tag (SEQ ID NO: 15) conjugated to the chelator DOTAM via C-terminal tag and maleimide connector, no radionuclide (conjugate)
chain: GSDLGKKLLEAARAGQDDEVRELLKAGADVNAKDYFSHTPLHLAARNGHLKIVEVLLKAGADVNAKDFAGKTPLHLAADAGHLEIVEVLLKAGADVNAQDIFGKTPADIAADAGHEDIAEVLQKAAGSPTPTPTTPTPTPTTPTPTPTGSDLGKKLLAAAAQGQDDEVRELLKAGANVNAKDLFGYTPLHLAAWRGHLEIVEVLLKAGADVNAKDAAGETPLHLAAWFGHLEIVEVLLKAGADVNAQDLQGKTPADLAAKEGHEDIAEVLQKAAGSGSC
modifications: DOTAM chelator via maleimide on C-terminal tag; Ankyrin repeat protein with tag (GS-MAM279-tag)

Assays:
[1] = target: T1, NCI-H82 cells expressing human DLL3 (Homo sapiens, UniProt Q9NYJ7); experiment: Cell binding titration on NCI-H82 cells; assay type: cell-based
T1 construct: a human lung carcinoma cell line which endogenously expresses DLL3 on the surface; host or cells: NCI-H82
T1 sequence (Q9NYJ7 27-618): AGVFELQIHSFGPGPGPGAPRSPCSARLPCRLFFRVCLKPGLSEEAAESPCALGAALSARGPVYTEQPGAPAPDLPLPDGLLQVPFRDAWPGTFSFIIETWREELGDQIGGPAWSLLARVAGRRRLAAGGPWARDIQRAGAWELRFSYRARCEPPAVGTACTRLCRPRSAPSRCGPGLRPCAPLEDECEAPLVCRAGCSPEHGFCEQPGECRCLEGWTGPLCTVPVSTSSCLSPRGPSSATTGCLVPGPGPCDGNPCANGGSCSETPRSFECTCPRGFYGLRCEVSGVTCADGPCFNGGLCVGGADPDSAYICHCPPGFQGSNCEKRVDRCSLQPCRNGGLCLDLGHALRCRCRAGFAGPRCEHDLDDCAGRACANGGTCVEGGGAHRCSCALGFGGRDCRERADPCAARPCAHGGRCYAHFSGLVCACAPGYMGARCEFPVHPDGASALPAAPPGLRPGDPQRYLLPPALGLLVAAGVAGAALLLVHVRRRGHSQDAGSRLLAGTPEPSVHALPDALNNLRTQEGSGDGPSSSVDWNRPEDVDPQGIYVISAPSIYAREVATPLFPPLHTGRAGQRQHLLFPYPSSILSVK
Experimental: Furthermore, cell binding titration assays were also performed with selected two domain (2D) designed ankyrin repeat proteins to determine binding to human cells expressing DLL3 endogenously, in absence and presence of human serum albumin. For this purpose, NCI-H82 cells were used, a human lung carcinoma cell line which endogenously expresses DLL3 on the surface. […] A non-binding DARPin comprising SEQ ID NO: 22 was used as a negative control.
In brief, 1×10^5 cells/well were resuspended in 100 μl DARPin dilution (500 nM, 1:5 serial diluted in PBS, 2% FBS) and incubated for 1 h at 4° C. This step was performed in absence and presence of 10 μM Human Serum Albumine (CSL Behring #150570). Cells were washed twice with PBS, 2% FBS and resuspended in 100 μl anti-DARPin antibody (rabbit anti-DARPin 1.4.8) and LIVE/DEAD cell stain (1:1000, Biolegend #423106). After incubation and washing, cells were incubated with detection antibody for 30 minutes (Goat […] IgG (H+L), AF647, Thermo Fisher #21445). Cells were fixed (Paraformaldehyde Solution, TCL119, LucernaChem) and acquired at Attune N×T (Thermo Life Technologies). Raw fcs files were exported and analyzed using FlowJo software. MFI values of live AF647-positive cells were exported from FlowJo and plotted using GraphPad Prism software.

Human DLL3-NTD = target: T2, Human DLL3-NTD (Homo sapiens, UniProt Q9NYJ7); experiment: SPR binding to human DLL3-NTD (Example 11); settings: immobilized biotinylated target, 1:1 Langmuir, Table 14
T2 construct: comprising only the N-Terminal Domain (NTD, residues 27-189); 6xHis (C); made in house; host or cells: Expi293F cells
T2 sequence (Q9NYJ7 27-189): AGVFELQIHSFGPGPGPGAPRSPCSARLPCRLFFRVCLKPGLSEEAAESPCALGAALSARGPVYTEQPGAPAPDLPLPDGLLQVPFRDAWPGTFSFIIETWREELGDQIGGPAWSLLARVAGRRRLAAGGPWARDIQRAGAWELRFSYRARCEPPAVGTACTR
Experimental: The truncated human DLL3 construct, comprising only the N-Terminal Domain (NTD, residues 27-189), was designed with a C-terminal 6×His and Avi-tag. Co-expression was carried in Expi293F cells and purification was performed via Ni-NTA affinity chromatography followed by SEC. The final material was monomeric on size exclusion and stored in PBS pH 7.4 at the final concentration of 0.26 mg/ml.
The binding of 2D ankyrin repeat protein MAM279 as well as of MAM279 conjugated to the chelator DOTAM (the conjugation was performed as described in Example 3) to different target proteins was analyzed by Surface Plasmon Resonance (SPR). Specifically, the proteins analyzed were (i) MAM279 (SEQ ID NO: 11), with a Glycine-Serine (GS) at its N-terminal end and an N-terminal His-tag (SEQ ID NO: 19); and (ii) MAM279 (SEQ ID NO: 11), with a Glycine-Serine (GS) at its N-terminal end and a tag (SEQ ID NO: 10) at its C-terminal end (resulting in GS-MAM279-tag (SEQ ID NO: 15)), conjugated to the chelator DOTAM as described in Example 3.
A surface plasmon resonance (SPR) assay was used to determine the binding kinetics of the two proteins (i.e. MAM279 with and without conjugation to chelator) to different targets: the Extra-Cellular Domain (ECD) of human DLL3, the ECD of cynomolgus monkey DLL3, the N-Terminal Domain (NTD) only of human DLL3, and the NTD dog DLL3. The data were generated using BioRad ProteOn instrument in SPR running buffer (PBS, pH 7.4 containing 0.005% Tween 20©). […] The chip was coated with biotinylated target to reach a signal intensity of 1516 RU (human ECD), 257 RU (human NTD), 1500 RU (cyno ECD) and 228 RU (dog NTD). All analytes (various concentrations in 3-fold dilutions ranging from 500-6.17 nM) were injected in succession for 240 s (100 μl/min) and dissociation was recorded for 10800 s (100 μl/min). Each injection was followed by a regeneration step with 16 mM H3PO4 for 18 s. […] The obtained SPR traces were used to determine on-rate and off-rate interaction parameters.

[2] = absence of human serum albumin, read-out: Cell binding EC50, w/o HSA
[3] = presence of 10 μM human serum albumin, read-out: Cell binding EC50, with HSA

Molecule | EC50 [1, 2] | EC50 [1, 3] | Kd (Human DLL3-NTD) | Koff Human DLL3-NTD (Human DLL3-NTD) | Kon Human DLL3-NTD (Human DLL3-NTD)
B1 | 2.5 nM | 2.1 nM | 0.263 nM | 1.54e-05 s⁻¹ | 58700 M⁻¹ s⁻¹
B2 | 5.4 nM | 8.1 nM |  |  | 
B3 | 2.6 nM | 2.6 nM |  |  | 
B4 |  |  |  | 1.99e-05 s⁻¹ | 50400 M⁻¹ s⁻¹
